Experimental data as given in FireProtDB (doi:10.1021/bi9928694).

B1: Lysozyme C, P61626 (parent)
chain: MKALIVLGLVLLSVTVQGKVFERCELARTLKRLGMDGYRGISLANWMCLAKWESGYNTRATNYNAGDRSTDYGIFQINSRYWCNDGKTPGAVNACHLSCSALLQDNIADAVACAKRVVRDPQGIRAWVAWRNRCQNRDVRQYVQGCGV

Variants of: B1
Conditions: Homo sapiens, reversible: yes, structure 1LZ1, whole UniProt chain shown
[1] = pH 2.7, Thermal, DSC, glycine-HCl 0.05 M
[2] = pH 4, 10 °C, GdnHCl, CD, glycine-HCl 40 mM
[3] = pH 2.7, 64.9 °C, Thermal, DSC, glycine-HCl 0.05 M

Row | Variant | change of melting temperature, mutant - wild type (higher = more stable) [1] [°C] | heat capacity change of unfolding [1] [kcal/mol/K] | unfolding enthalpy (calorimetric) [1] [kcal/mol] | ddG of mutation (higher = less stable) [2] [kcal/mol] | denaturant midpoint (higher = more stable) [2] [M] | unfolding free energy [2] [kcal/mol] | ddG of mutation (higher = less stable) [3] [kcal/mol] | heat capacity change of unfolding [3] [kcal/mol/K] | unfolding enthalpy (calorimetric) [3] [kcal/mol] | Tm [1] [°C]
1 | MKALIVLGLVLLSVTVQGKVFERCELARTLKRLGMDGYRGISLANWMCLAKWESGYNTRATNYNAGDRSTDYGIFGINSRYWCNDGKTPGAVNACHLSCSALLQDNIADAVACAKRVVRDPQGIRAWVAWRNRCQNRDVRQYVQGCGV [Q76G] | 5.7 | 1.34 | 109 | -2.06 | 4.26 | 16.4 | – | – | – | –
2 | MKALIVLGLVLLSVTVQGKVFERCELARTLKRLGMDGYRGISLANWMCLAKWESGYNTRATNYNAGDRSTDYGIFQINSRYWCNDGKTPGAVNACGLSCSALLQDNIADAVACAKRVVRDPQGIRAWVAWRNRCQNRDVRQYVQGCGV [H96G] | – | 1.58 | 109 | 0.53 | 3.81 | 13.8 | 0.12 | 1.58 | 109 | 64.9
3 | MKALIVLGLVLLSVTVQGKVFERCELARTLKRLGMDGYRGISLANWMCLAKWESQYNTRATNYNAGDRSTDYGIFQINSRYWCNDGKTPGAVNACHLSCSALLQDNIADAVACAKRVVRDPQGIRAWVAWRNRCQNRDVRQYVQGCGV [G55Q] | – | 1.15 | 108 | 0.86 | 3.79 | 13.5 | 0.26 | 1.15 | 108 | 64.9
4 | MKALIVLGLVLLSVTVQGKVFERCELARTLKRLGMDGYRGISLANWMCLAKWESGYNTRATNYNAGDGSTDYGIFQINSRYWCNDGKTPGAVNACHLSCSALLQDNIADAVACAKRVVRDPQGIRAWVAWRNRCQNRDVRQYVQGCGV [R68G] | 0.9 | – | – | – | – | – | -0.26 | 1.46 | 100 | 65.8
